Assay [1] deals with T1, ^mChRZZS filaments (mCherry-RZZ with prefarnesylated Spindly, polymerised with GST-MPS1) (UniProt P50748 1-2209; Q9H900 1-591; O43264 1-779; Q96EA4 1-605, incubated with GST-MPS1 (the paper says that MPS1 phosphorylates ROD on Thr13 and Ser15) | farnesylated (prefarnesylated)).
T1 construct: ROD subunit of the ROD-Zwilch-ZW10 (RZZ) complex; Zwilch subunit of the RZZ complex; ZW10 subunit of the RZZ complex; Spindly, dynein-dynactin adaptor; no mCherry is named on the Spindly of the filaments; Filaments formed essentially as described by d'Amico et al (2022); source: mCherry-RZZ: biGBac system, purified as previously described; 4 μM mCherry-RZZ and 8 μM prefarnesylated Spindly …
Briefly: filament-binding assay (fluorescence microscopy); mCherry-RZZS filaments diluted 1:8, EGFP-CENP-E constructs added to 1 μM, flowed into a flow chamber and imaged; M-buffer (50 mM HEPES pH 7.5, 100 mM NaCl, 1 mM MgCl2, 1 mM TCEP). As to conditions: both partners purified.

Assay [2] concerns the target T2, ^mCHRZZ^mChS rings (mCherry-RZZ with prefarnesylated mCherry-Spindly, polymerised with GST-MPS1) (UniProt P50748 1-2209; Q9H900 1-591; O43264 1-779; Q96EA4 1-605, incubated with GST-MPS1 (the paper says that MPS1 phosphorylates ROD on Thr13 and Ser15) | farnesylated (prefarnesylated)).
T2 construct: ROD subunit of the ROD-Zwilch-ZW10 (RZZ) complex; Zwilch subunit of the RZZ complex; ZW10 subunit of the RZZ complex; Spindly, dynein-dynactin adaptor; Constructs as in Sacristan et al, 2018, Raisch et al, 2022 and d'Amico et al, 2022; also called RZZS minicircles; RZZS rings; source: mCherry-RZZ: biGBac system, purified as previously described; mCherry-Spindly: Tnao38 insect cells, purified; 4 …
The experiment in a line: TIRF microscopy ring-binding assay; mCherry-RZZ/mCherry-Spindly rings (approximately 40 nM) held on the coverslip by anti-mCherry GST-tagged nanobody; EGFP-CENP-E constructs (10 nM) flowed in; A-buffer (50 mM HEPES pH 8, 200 mM NaCl, 2 mM TCEP, 0.1 mg/ml BSA); room temperature. The following applies: both partners purified.

T2 sequence (P50748 whole entry, chain 1 of 4): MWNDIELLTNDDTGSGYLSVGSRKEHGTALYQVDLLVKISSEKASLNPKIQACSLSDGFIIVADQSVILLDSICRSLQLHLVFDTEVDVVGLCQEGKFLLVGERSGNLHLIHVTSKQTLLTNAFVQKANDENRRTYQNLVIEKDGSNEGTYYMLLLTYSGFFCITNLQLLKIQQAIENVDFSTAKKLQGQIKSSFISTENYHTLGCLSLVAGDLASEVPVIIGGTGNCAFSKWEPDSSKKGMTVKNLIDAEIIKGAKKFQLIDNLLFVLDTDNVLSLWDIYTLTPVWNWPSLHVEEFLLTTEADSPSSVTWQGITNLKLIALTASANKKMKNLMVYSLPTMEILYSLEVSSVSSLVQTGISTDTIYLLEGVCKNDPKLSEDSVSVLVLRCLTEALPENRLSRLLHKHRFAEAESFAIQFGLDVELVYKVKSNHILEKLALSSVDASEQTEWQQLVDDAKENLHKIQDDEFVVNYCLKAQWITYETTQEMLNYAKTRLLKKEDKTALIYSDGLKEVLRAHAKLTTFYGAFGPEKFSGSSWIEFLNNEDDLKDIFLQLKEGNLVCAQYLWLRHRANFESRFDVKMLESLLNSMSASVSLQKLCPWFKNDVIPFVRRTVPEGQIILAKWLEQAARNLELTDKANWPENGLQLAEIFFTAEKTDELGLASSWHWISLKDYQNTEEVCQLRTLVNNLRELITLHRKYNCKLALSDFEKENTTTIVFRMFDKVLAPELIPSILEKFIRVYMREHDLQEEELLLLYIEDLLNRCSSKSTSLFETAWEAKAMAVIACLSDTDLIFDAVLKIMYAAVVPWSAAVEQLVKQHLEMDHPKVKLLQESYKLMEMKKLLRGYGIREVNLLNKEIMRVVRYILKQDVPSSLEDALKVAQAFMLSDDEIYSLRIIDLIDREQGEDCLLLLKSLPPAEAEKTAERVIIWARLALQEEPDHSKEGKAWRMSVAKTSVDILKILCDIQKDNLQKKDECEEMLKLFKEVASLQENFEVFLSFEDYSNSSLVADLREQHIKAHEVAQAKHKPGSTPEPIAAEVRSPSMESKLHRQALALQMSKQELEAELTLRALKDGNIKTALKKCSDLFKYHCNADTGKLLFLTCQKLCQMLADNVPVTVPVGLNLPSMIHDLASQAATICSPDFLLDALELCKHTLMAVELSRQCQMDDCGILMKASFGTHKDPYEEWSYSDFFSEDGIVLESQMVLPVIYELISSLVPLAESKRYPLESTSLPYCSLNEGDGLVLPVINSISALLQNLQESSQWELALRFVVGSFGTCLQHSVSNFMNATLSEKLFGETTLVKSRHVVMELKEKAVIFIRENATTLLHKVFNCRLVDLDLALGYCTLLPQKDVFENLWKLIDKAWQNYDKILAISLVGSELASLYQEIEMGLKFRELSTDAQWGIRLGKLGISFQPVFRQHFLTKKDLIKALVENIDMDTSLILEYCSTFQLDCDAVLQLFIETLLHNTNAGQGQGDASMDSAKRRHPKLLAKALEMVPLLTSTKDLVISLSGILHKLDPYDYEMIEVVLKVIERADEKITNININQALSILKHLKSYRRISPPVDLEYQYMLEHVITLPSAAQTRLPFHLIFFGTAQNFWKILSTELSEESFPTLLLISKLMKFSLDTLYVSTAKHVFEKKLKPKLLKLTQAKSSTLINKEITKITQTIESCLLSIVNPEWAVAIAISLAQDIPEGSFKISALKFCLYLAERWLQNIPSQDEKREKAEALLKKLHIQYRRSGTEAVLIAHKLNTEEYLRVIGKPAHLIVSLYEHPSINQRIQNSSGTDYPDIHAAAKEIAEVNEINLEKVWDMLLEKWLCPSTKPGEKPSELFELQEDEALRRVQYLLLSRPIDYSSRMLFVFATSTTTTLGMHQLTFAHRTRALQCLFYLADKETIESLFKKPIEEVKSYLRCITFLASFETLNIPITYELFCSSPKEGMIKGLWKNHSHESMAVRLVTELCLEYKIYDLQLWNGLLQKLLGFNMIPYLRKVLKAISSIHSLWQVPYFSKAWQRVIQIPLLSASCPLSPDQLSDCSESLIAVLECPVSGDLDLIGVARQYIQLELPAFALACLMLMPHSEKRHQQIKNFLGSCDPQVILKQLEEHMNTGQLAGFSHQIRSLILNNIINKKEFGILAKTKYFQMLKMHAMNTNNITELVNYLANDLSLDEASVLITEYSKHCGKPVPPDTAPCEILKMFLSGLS
T2 sequence (Q9H900 whole entry, chain 2 of 4): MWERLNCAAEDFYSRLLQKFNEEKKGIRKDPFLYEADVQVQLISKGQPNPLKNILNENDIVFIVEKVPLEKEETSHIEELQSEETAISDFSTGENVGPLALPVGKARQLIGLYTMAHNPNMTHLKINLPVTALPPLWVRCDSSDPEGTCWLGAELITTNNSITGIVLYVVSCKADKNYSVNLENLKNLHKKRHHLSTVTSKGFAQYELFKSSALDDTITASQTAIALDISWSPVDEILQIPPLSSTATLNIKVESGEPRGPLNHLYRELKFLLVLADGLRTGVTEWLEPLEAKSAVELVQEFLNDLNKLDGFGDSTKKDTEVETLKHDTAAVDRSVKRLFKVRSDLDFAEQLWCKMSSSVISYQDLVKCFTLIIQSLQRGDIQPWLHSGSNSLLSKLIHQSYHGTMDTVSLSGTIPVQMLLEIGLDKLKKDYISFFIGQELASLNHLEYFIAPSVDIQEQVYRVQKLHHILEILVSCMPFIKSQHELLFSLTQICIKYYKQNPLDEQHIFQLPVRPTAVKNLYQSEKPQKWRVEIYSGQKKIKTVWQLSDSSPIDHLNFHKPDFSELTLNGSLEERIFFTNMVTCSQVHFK
T2 sequence (O43264 whole entry, chain 3 of 4): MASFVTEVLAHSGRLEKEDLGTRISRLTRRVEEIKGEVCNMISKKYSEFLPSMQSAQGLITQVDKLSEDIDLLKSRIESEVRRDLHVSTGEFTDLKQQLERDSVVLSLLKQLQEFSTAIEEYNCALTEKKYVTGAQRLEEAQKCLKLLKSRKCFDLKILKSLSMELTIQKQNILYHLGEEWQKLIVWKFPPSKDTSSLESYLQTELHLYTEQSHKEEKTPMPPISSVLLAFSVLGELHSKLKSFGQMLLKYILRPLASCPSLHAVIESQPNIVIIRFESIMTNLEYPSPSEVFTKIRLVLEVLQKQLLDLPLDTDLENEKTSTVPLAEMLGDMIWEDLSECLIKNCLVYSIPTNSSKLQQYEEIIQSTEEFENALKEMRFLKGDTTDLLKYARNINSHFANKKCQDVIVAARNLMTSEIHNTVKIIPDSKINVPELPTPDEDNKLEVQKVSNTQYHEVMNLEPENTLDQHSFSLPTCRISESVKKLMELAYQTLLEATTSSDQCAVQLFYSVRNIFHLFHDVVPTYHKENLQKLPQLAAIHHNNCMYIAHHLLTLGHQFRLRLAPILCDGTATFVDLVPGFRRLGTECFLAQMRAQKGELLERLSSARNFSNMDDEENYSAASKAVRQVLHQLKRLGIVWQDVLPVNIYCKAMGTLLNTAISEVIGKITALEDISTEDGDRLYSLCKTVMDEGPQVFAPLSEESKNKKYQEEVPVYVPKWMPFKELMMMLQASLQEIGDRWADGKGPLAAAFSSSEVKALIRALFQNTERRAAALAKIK
T2 sequence (Q96EA4 whole entry, chain 4 of 4): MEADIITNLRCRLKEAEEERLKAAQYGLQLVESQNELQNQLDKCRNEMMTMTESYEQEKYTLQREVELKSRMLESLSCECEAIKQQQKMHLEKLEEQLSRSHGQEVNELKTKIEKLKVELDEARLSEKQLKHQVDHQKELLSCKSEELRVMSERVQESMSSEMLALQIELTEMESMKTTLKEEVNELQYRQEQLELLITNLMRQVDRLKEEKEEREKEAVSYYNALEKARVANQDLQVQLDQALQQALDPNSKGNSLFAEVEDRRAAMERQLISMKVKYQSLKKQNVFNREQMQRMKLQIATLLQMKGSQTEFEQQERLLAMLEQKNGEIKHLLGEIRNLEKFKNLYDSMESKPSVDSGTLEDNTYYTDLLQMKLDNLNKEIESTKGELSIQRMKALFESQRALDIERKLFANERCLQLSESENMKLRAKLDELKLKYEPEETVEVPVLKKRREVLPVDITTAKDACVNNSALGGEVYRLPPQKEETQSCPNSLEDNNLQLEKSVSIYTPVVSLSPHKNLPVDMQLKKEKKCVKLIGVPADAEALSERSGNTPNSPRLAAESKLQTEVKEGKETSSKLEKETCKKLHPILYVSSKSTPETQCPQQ
T1 sequence (P50748 whole entry, chain 1 of 4): as the sequence (P50748 whole entry, chain 1 of 4) above
T1 sequence (Q9H900 whole entry, chain 2 of 4): as the sequence (Q9H900 whole entry, chain 2 of 4) above
T1 sequence (O43264 whole entry, chain 3 of 4): as the sequence (O43264 whole entry, chain 3 of 4) above
T1 sequence (Q96EA4 whole entry, chain 4 of 4): as the sequence (Q96EA4 whole entry, chain 4 of 4) above

B1: EGFP‐CENP‐E^2070C (domain or fragment, human, UniProt Q02224 2070-2701, looked up)
chain: RQNHQVKPEKRLLSDGQQHLTESLREKCSRIKELLKRYSEMDDHYECLNRLSLDLEKEIEFQKELSMRVKANLSLPYLQTKHIEKLFTANQRCSMEFHRIMKKLKYVLSYVTKIKEEQHESINKFEMDFIDEVEKQKELLIKIQHLQQDCDVPSRELRDLKLNQNMDLHIEEILKDFSESEFPSIKTEFQQVLSNRKEMTQFLEEWLNTRFDIEKLKNGIQKENDRICQVNNFFNNRIIAIMNESTEFEERSATISKEWEQDLKSLKEKNEKLFKNYQTLKTSLASGAQVNPTTQDNKNPHVTSRATQLTTEKIRELENSLHEAKESAMHKESKIIKMQKELEVTNDIIAKLQAKVHESNKCLEKTKETIQVLQDKVALGAKPYKEEIEDLKMKLVKIDLEKMKNAKEFEKEISATKATVEYQKEVIRLLRENLRRSQQAQDTSVISEHTDPQPSNKPLTCGGGSGIVQNTKALILKSEHIRLEKEISKLKQQNEQLIKQKNELLSNNQHLSNEVKTWKERTLKREAHKQVTCENSPKSPKVTGTASKKKQITPSQCKERNLQDPVPKESPKSCFFDSRSKSLPSPHPVRYFDNSSLGLCPEVQNAGAESVDSQPGPWHASSGKDVPECKTQ
notes: codon-optimised cDNA; The His6-EGFP tag is PreScission-cleavable, but no cleavage step is described; source: insect cells (biGBac; baculovirus from Sf9, expression in Tnao38), purified (HisTrap, Superdex 200); not shown: EGFP, N-terminal, kept
As for B1, the binding result in assay [1] and in assay [2] was “binds” throughout.

B2: EGFP‐CENP‐E^2366C (domain or fragment, human, UniProt Q02224 2366-2701, looked up)
chain: NKNPHVTSRATQLTTEKIRELENSLHEAKESAMHKESKIIKMQKELEVTNDIIAKLQAKVHESNKCLEKTKETIQVLQDKVALGAKPYKEEIEDLKMKLVKIDLEKMKNAKEFEKEISATKATVEYQKEVIRLLRENLRRSQQAQDTSVISEHTDPQPSNKPLTCGGGSGIVQNTKALILKSEHIRLEKEISKLKQQNEQLIKQKNELLSNNQHLSNEVKTWKERTLKREAHKQVTCENSPKSPKVTGTASKKKQITPSQCKERNLQDPVPKESPKSCFFDSRSKSLPSPHPVRYFDNSSLGLCPEVQNAGAESVDSQPGPWHASSGKDVPECKTQ
notes: source: E. coli BL21 (DE3) RP plus, purified (HisTrap FF, Superose 6); not shown: EGFP, N-terminal, kept
As for B2, in assay [2], the binding result is listed as “binds”.

These data come from publication PMC10711656, “RZZ‐Spindly and CENP‐E form an integrated platform to recruit dynein to the kinetochore corona” (The EMBO Journal, 2023).
